Test results as given in patent US6028055A, “Receptor selective BNP” (Genetech, Inc., priority 1997, dated 2000).

T1: NPR-C (Homo sapiens, UniProt P17342)
T1 construct: expressed in transfected cells
T1 sequence (P17342 27-541): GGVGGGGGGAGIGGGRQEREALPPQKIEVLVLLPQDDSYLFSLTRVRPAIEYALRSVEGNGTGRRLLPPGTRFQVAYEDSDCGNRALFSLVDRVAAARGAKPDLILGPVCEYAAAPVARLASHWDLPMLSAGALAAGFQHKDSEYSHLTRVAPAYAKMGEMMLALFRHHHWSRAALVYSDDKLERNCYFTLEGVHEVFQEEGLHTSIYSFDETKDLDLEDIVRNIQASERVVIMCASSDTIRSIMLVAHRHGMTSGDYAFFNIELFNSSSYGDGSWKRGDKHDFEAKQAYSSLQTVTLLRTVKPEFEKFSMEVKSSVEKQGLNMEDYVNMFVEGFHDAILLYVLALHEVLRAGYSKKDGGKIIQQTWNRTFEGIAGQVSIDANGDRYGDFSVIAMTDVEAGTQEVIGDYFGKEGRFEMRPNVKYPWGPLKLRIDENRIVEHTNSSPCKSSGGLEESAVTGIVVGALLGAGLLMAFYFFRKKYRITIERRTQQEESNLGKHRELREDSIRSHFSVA

T2: NPR-C expressed in stable 293 cell lines (membranes) (human) (UniProt P17342)
T2 sequence: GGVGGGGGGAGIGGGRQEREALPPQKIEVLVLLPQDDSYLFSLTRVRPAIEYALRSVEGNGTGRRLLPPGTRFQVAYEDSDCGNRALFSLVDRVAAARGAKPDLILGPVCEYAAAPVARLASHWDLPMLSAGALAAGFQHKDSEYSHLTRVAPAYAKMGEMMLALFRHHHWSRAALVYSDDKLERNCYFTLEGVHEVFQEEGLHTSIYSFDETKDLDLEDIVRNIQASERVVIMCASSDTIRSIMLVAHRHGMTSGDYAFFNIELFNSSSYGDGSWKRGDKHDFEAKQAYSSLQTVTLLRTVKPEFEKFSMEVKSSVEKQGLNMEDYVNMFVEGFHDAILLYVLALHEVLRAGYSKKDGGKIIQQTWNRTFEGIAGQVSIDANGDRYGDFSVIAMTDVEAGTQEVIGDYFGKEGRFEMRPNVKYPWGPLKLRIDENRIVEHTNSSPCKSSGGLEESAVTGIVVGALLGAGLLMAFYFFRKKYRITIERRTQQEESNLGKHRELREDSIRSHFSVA

T3: NPR-A (Homo sapiens, UniProt P16066)
T3 construct: expressed in transfected cells
T3 sequence (P16066 33-1061): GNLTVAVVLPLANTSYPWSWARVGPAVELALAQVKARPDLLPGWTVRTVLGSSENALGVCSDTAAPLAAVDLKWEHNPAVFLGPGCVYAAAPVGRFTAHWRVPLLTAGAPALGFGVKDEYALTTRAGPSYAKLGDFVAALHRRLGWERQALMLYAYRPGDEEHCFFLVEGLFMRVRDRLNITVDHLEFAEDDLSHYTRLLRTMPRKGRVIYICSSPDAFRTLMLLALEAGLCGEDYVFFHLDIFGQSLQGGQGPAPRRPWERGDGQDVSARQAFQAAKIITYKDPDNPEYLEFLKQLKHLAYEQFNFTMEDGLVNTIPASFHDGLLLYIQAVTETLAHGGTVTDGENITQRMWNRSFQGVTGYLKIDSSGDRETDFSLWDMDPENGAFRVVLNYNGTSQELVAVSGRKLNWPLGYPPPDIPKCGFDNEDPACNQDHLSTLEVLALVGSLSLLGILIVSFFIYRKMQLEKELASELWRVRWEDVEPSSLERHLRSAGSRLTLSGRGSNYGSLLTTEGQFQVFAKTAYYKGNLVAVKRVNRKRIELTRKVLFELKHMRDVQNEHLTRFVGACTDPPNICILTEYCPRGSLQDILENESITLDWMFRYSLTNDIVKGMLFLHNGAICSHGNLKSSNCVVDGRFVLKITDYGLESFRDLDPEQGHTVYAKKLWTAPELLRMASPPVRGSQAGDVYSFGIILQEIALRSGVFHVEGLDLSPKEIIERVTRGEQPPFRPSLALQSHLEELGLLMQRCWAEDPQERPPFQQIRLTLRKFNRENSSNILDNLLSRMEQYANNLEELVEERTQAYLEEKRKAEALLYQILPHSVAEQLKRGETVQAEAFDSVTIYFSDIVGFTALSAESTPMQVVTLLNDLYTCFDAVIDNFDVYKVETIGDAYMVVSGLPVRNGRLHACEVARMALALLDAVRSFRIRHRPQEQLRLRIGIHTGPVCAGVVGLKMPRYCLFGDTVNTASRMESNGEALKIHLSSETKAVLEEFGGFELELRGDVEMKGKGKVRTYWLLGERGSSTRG

T4: NPR-C expressed in stable 293 cell lines (membranes) (human, UniProt P17342)
T4 sequence: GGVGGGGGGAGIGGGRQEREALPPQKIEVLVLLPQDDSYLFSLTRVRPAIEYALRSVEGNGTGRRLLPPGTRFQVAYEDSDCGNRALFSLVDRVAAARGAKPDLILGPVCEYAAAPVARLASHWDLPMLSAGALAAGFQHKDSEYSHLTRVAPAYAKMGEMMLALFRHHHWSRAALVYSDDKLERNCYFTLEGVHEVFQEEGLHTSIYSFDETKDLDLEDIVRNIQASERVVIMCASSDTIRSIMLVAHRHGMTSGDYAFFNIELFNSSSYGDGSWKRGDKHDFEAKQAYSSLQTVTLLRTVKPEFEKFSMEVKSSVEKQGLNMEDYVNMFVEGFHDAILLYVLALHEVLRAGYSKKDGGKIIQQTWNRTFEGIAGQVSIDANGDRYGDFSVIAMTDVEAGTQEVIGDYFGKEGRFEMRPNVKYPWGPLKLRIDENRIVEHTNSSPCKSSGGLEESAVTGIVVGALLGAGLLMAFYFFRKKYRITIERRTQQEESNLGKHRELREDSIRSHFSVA


Key:
NPR-C = biological target: T1, NPR-C; experiment: Measurement of binding affinities for NPR-C, membranes from stable 293 cell lines, 125I rat ANP displacement; design: unit not given here; settings: pure synthetic peptide vs 30 pM 125I rat ANP, 2 hours room temperature; duplicate points, three separate assays
Description: (§1) Membrane Preparation Membranes from stable 293 cell lines expressing NPR-A (Lowe and Fendly (1992) J. Biol. Chem.) or NPR-C (Cunningham et al. (1994) supra) were prepared by removing the cells from tissue culture plates with 0.5MM EDTA in PBS, centrifuging at 225×g, 4° C., and resuspending in 50 mM Hepes Ph7.4, 1 mM EDTA, 1 mM DTT, 250 mM Sucrose, 0.7 μg/ml Pepstatin A, 0.5 μg/ml Leupeptin, 1 mM PMSF, 1 μM Phosphoramidon. The resuspended cells were homogenized for 30 seconds with a Brinkman polytron on setting 5. The homogenate was centrifuged in 30 ml corex tubes in Sorval HB-4 rotor at 400×(1500 rpm) for 10 minutes at 4° C. The supernatant was centrifuged again in screw cap polycarbonate tubes (Beckman 355618) at 100,000×g (31,500 rpm) for 30 minutes, 4° C. in a Beckman TI60 rotor. The pellet was resuspended in 50 mM Hepes, 0.1 mM EDTA, 5.0 mM MgCl2, 100 mM NaCl, 0.7μg/ml Pepstatin A, 0.5 μg/ml Leupeptin, 1 mM PMSF, 1 μM Phosphoramidon and homogenized again with 15 strokes in a Dounce homogenizer (Wheaton 7 ml, #357542). The membranes were passed through a 22 gauge needle several times before aliquoting into eppendorf tubes for storage at -80° C.
(§2) The binding was allowed to go for 2 hours at room temperature in 96 well U-bottomed microtiter polypropylene plates (Sigma M-4029) with gentle agitation. The bound hormone was separated from the free using a Packard Filtermate 196 cell harvester and 1% polyethyleneimine-saturated Packard unifilter-96 GF/B plates by vacuum filtration. The plates were dried under vacuum chamber for 10 minutes prior to adding 40 μl Microscint-20 scintillant and counting in a Packard Topcount scintillation counter. Each affinity represents points measured in duplicate within three separate assays.

[1] = biological target: T2, NPR-C expressed in stable 293 cell lines (membranes) (human); experiment: competition with 30 pM 125I-rat ANP on membranes of 293 cells expressing NPR-C; unit not given
[2] = biological target: human natriuretic peptide receptor-A expressed in 293 cells (human) (UniProt P16066); experiment: competition with 30 pM 125I-rat ANP on membranes of 293 cells expressing NPR-A; unit not given
NPR-A = biological target: T3, NPR-A; experiment: Measurement of binding affinities for NPR-A, membranes from stable 293 cell lines, 125I rat ANP displacement; settings: pure synthetic peptide vs 30 pM 125I rat ANP, 2 hours room temperature; duplicate points, three separate assays
Description: as §1, §2

[3] = biological target: T4, NPR-C expressed in stable 293 cell …; experiment: competition with 30 pM 125I-rat ANP on membranes of 293 cells expressing NPR-C; unit not given
Description: as §1, with “µg/ml” for “μg/ml”, “µM” for “μM”, “MgCl_2,” for “MgCl2,”, “0.7µg/ml” for “0.7μg/ml”, “−80°” for “-80°”
as §2, with “µl” for “μl”

[4] = biological target: human natriuretic peptide receptor-A expressed in 293 cells (human, UniProt P16066); experiment: competition with 30 pM 125I-rat ANP on membranes of 293 cells expressing NPR-A; unit not given
Description: as §1, with “µg/ml” for “μg/ml”, “µM” for “μM”, “MgCl_2,” for “MgCl2,”, “0.7µg/ml” for “0.7μg/ml”, “−80°” for “-80°”
as §2, with “µl” for “μl”

hBNP Ser19Arg (SEQ ID NO: 4) (peptide), sequence (peptide): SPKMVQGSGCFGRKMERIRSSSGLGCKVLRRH

Row | Molecule | NPR-C binding affinity (Assay #1) (NPR-C) | affinity (NPR-C) [1] | affinity (NPR-A) [2] | affinity (NPR-C) [3] | affinity (NPR-A) [4] | also measured
1 | hANP Gly16Arg [reference compound] | 10,601 ± 1271 | – | – | – | – | –
2 | hBNP (SEQ ID NO: 1) (peptide) | – | 1790 | 645 | – | – | –
3 | hBNP Arg13Gly, Lys14Arg, Ser19Arg (SPKMVQGSGCFGGRMDRIRSSSGLGCKVLRRH) | 28,370 ± 9,654 | – | – | – | – | –
4 | hBNP Gly23Phe, Leu24Trp, Gly25Arg (SEQ ID NO: 2) (peptide) | – | 9360 | 378 | – | – | –
5 | hBNP Gly23Phe, Leu24Trp, Gly25Arg (SPKMVQGSGCFGRKMERISSSSFWRCKVLRRH) | 9363 ± 2067 | – | – | – | – | NPR-A binding affinity (Assay #1) (NPR-A): 378 ± 136
6 | hBNP Ser19Arg | 95,498 ± 14,603 | – | – | – | – | NPR-A binding affinity (Assay #1) (NPR-A): 155 ± 55.3
7 | hBNP Ser19Arg (SEQ ID NO: 4) (peptide) | – | 95500 | 155 | – | – | –
8 | hBNP Ser19Arg Gly23Phe, Leu24Trp, Gly25Arg (SPKMVQGSGCFGRKMERIRSSSFWRCKVLRRH) | 172,400 ± 120,096 | – | – | – | – | NPR-A binding affinity (Assay #1) (NPR-A): 287 ± 27
9 | SLRRSSCFGGRIDRIGAQSGLGCNSFRY [hANP (SEQ ID NO: 51)] | – | – | – | 198 | 43.5 | –
10 | SPKMVQGSGCFGGRMDRIRSSSGLGCKVLRRH [hBNP Arg13Gly, Lys14Arg, Ser19Arg (SEQ ID NO:49)] | – | – | – | 28400 | 518 | –
11 | SLRRSSCFGGRIDRIRAQSGLGCNSFRY [hANP Gly16Arg (SEQ ID NO: 52)] | – | – | – | 10600 | 17.2 | –
12 | SLRRSSCFGGRIDRIGAQSFWRCNSFRY [hANP Net12Ile, Gly20Phe, Leu21Trp, Gly22Arg (SEQ ID NO:50)] | – | – | – | 295 | 507 | –
13 | SPKMVQGSGCFGRKMERIRSSSFWRCKVLRRH [hBNP Ser19Arg, Gly23Phe, Leu24Trp, Gly25Arg (SEQ ID NO: 7)] | – | 172000 | 287 | – | – | –
